Source: the supplement of paper PMC9112550, “Optimization of the antimicrobial peptide Bac7 by deep mutational scanning” (BMC Biology, 2022)

tested on: Escherichia coli TOP10; assay: shrunken log2 fold change of peptide-encoding DNA abundance (4.5 h post-induction vs induction); higher = less antimicrobial activity (less host growth inhibition); details: time post-induction: 4.5 h; library: site-saturation at positions 5, 18, 19, 20
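Note: peptides expressed intracellularly from a pBAD plasmid library in pooled LB shake-flask culture, induced with 0.3% L-arabinose, DNA abundance read by NGS, three biological replicates, DESeq2 with apeglm shrinkage.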

Row | Sequence | shrunken log2 fold change
1 | RRIRPRPPRLPRPRPRPEGIPRP | -0.00608
2 | RRIRPRPPRLPRPRPRPEGKPRP | -0.124
3 | RRIRPRPPRLPRPRPRPEHMPRP | -0.0558
4 | RRIRPRPPRLPRPRPRPEHQPRP | -0.0202
5 | RRIRPRPPRLPRPRPRPEKDPRP | -0.0428
6 | RRIRPRPPRLPRPRPRPEKHPRP | 0.418
7 | RRIRPRPPRLPRPRPRPEKIPRP | -0.0804
8 | RRIRPRPPRLPRPRPRPEKTPRP | 0.037
9 | RRIRPRPPRLPRPRPRPELHPRP | 0.0832
10 | RRIRPRPPRLPRPRPRPELTPRP | 0.537
11 | RRIRPRPPRLPRPRPRPEPRPRP | 1.05
12 | RRIRPRPPRLPRPRPRPEPVPRP | 0.12
13 | RRIRPRPPRLPRPRPRPERPPRP | 0.309
14 | RRIRPRPPRLPRPRPRPESFPRP | -0.216
15 | RRIRPRPPRLPRPRPRPESYPRP | -0.00116
16 | RRIRPRPPRLPRPRPRPETGPRP | -0.0114
17 | RRIRPRPPRLPRPRPRPETTPRP | -0.0108
18 | RRIRPRPPRLPRPRPRPETVPRP | 0.207
19 | RRIRPRPPRLPRPRPRPEVCPRP | 0.138
20 | RRIRPRPPRLPRPRPRPEVWPRP | 0.5
21 | RRIRPRPPRLPRPRPRPEVYPRP | 0.0493
22 | RRIRPRPPRLPRPRPRPEWAPRP | 2.06

Row | Sequence | shrunken log2 fold change
23 | RRIRPRPPRLPRPRPRPEWMPRP | 0.0362
24 | RRIRPRPPRLPRPRPRPEWNPRP | 0.07
25 | RRIRPRPPRLPRPRPRPEWPPRP | 0.449
26 | RRIRPRPPRLPRPRPRPEYQPRP | 0.288
27 | RRIRPRPPRLPRPRPRPFAGPRP | 0.0806
28 | RRIRPRPPRLPRPRPRPFCCPRP | 0.0801
29 | RRIRPRPPRLPRPRPRPFCNPRP | -0.609
30 | RRIRPRPPRLPRPRPRPFCQPRP | -0.257
31 | RRIRPRPPRLPRPRPRPFCSPRP | -0.186
32 | RRIRPRPPRLPRPRPRPFDEPRP | -0.0622
33 | RRIRPRPPRLPRPRPRPFDGPRP | -0.214
34 | RRIRPRPPRLPRPRPRPFEMPRP | 0.0143
35 | RRIRPRPPRLPRPRPRPFFFPRP | 0.279
36 | RRIRPRPPRLPRPRPRPFFHPRP | -0.229
37 | RRIRPRPPRLPRPRPRPFFPPRP | -0.135
38 | RRIRPRPPRLPRPRPRPFGCPRP | -0.144
39 | RRIRPRPPRLPRPRPRPFHVPRP | -0.428
40 | RRIRPRPPRLPRPRPRPFKLPRP | -0.00835
41 | RRIRPRPPRLPRPRPRPFMFPRP | -0.361
42 | RRIRPRPPRLPRPRPRPFNEPRP | -0.347
43 | RRIRPRPPRLPRPRPRPFNKPRP | -0.468
44 | RRIRPRPPRLPRPRPRPFNNPRP | -0.836

Row | Sequence | shrunken log2 fold change
45 | RRIRPRPPRLPRPRPRPFNWPRP | -0.118
46 | RRIRPRPPRLPRPRPRPFPDPRP | 0.00657
47 | RRIRPRPPRLPRPRPRPFPSPRP | 0.0138
48 | RRIRPRPPRLPRPRPRPFQIPRP | -0.169
49 | RRIRPRPPRLPRPRPRPFQPPRP | -0.0843
50 | RRIRPRPPRLPRPRPRPFQWPRP | -0.0697
51 | RRIRPRPPRLPRPRPRPFREPRP | 0.261
52 | RRIRPRPPRLPRPRPRPFRNPRP | -0.0931
53 | RRIRPRPPRLPRPRPRPFRTPRP | -0.362
54 | RRIRPRPPRLPRPRPRPFSMPRP | -0.161
55 | RRIRPRPPRLPRPRPRPFTAPRP | -0.332
56 | RRIRPRPPRLPRPRPRPFTCPRP | -0.206
57 | RRIRPRPPRLPRPRPRPFVKPRP | -0.133
58 | RRIRPRPPRLPRPRPRPFVVPRP | -0.233
59 | RRIRPRPPRLPRPRPRPFWIPRP | -0.161
60 | RRIRPRPPRLPRPRPRPFWKPRP | 0.0756
61 | RRIRPRPPRLPRPRPRPFWVPRP | 0.0111
62 | RRIRPRPPRLPRPRPRPGAYPRP | 0.0679
63 | RRIRPRPPRLPRPRPRPGCVPRP | 0.447
64 | RRIRPRPPRLPRPRPRPGDAPRP | 0.398
65 | RRIRPRPPRLPRPRPRPGEKPRP | -0.0882
66 | RRIRPRPPRLPRPRPRPGESPRP | -0.0364

Row | Sequence | shrunken log2 fold change
67 | RRIRPRPPRLPRPRPRPGEVPRP | 0.605
68 | RRIRPRPPRLPRPRPRPGFIPRP | -0.221
69 | RRIRPRPPRLPRPRPRPGGCPRP | 0.295
70 | RRIRPRPPRLPRPRPRPGGGPRP | 0.728
71 | RRIRPRPPRLPRPRPRPGGRPRP | 0.461
72 | RRIRPRPPRLPRPRPRPGHKPRP | -0.287
73 | RRIRPRPPRLPRPRPRPGIDPRP | -0.0536
74 | RRIRPRPPRLPRPRPRPGIMPRP | -0.2
75 | RRIRPRPPRLPRPRPRPGKRPRP | 0.389
76 | RRIRPRPPRLPRPRPRPGLHPRP | 0.09
77 | RRIRPRPPRLPRPRPRPGNSPRP | 0.0886
78 | RRIRPRPPRLPRPRPRPGPRPRP | 0.677
79 | RRIRPRPPRLPRPRPRPGQAPRP | -0.0745
80 | RRIRPRPPRLPRPRPRPGQQPRP | 0.167
81 | RRIRPRPPRLPRPRPRPGRDPRP | 0.286
82 | RRIRPRPPRLPRPRPRPGRFPRP | 0.434
83 | RRIRPRPPRLPRPRPRPGTIPRP | -0.171
84 | RRIRPRPPRLPRPRPRPGTTPRP | 0.195
85 | RRIRPRPPRLPRPRPRPGWCPRP | 0.072
86 | RRIRPRPPRLPRPRPRPHAHPRP | 0.00207
87 | RRIRPRPPRLPRPRPRPHAIPRP | -0.217
88 | RRIRPRPPRLPRPRPRPHARPRP | 0.111

Row | Sequence | shrunken log2 fold change
89 | RRIRPRPPRLPRPRPRPHATPRP | 0.323
90 | RRIRPRPPRLPRPRPRPHCDPRP | 0.22
91 | RRIRPRPPRLPRPRPRPHCQPRP | -0.0117
92 | RRIRPRPPRLPRPRPRPHDLPRP | 0.0288
93 | RRIRPRPPRLPRPRPRPHEVPRP | -0.0664
94 | RRIRPRPPRLPRPRPRPHFPPRP | -0.204
95 | RRIRPRPPRLPRPRPRPHHDPRP | -0.266
96 | RRIRPRPPRLPRPRPRPHHFPRP | -0.0294
97 | RRIRPRPPRLPRPRPRPHHKPRP | -0.647
98 | RRIRPRPPRLPRPRPRPHHRPRP | -0.118
99 | RRIRPRPPRLPRPRPRPHIKPRP | -0.454
100 | RRIRPRPPRLPRPRPRPHKTPRP | -0.0296
101 | RRIRPRPPRLPRPRPRPHMGPRP | -0.461
102 | RRIRPRPPRLPRPRPRPHMWPRP | -0.175
103 | RRIRPRPPRLPRPRPRPHPLPRP | 0.0451
104 | RRIRPRPPRLPRPRPRPHPVPRP | 0.151
105 | RRIRPRPPRLPRPRPRPHRWPRP | 0.25
106 | RRIRPRPPRLPRPRPRPHSLPRP | -0.0621
107 | RRIRPRPPRLPRPRPRPHSTPRP | -0.583
108 | RRIRPRPPRLPRPRPRPHSYPRP | 0.0057
109 | RRIRPRPPRLPRPRPRPHVRPRP | 0.036
